Assay results: article PMC9482650, “Quantitative fragmentomics allow affinity mapping of interactomes” (Nature Communications, 2022)

T1: PDZD7_3, Q9H5P4
T1 sequence (Q9H5P4 857-944, limits assumed, looked up): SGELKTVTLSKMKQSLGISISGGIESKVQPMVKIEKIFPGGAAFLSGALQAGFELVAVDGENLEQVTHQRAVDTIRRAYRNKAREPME

T2: PTPN13_1, Q12923
T2 sequence (Q12923 1088-1188, limits assumed, looked up): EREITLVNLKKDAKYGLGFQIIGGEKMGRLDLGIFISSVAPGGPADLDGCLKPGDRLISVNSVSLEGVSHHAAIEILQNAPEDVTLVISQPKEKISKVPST

T3: DFNB31_1, Q9P202
T3 sequence (Q9P202 135-233, limits assumed, looked up): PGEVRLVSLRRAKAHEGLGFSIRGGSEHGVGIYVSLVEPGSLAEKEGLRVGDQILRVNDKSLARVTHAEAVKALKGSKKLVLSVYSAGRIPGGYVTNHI

T4: MPP6, Q9NZW5
T4 sequence (Q9NZW5 125-219, limits assumed, looked up): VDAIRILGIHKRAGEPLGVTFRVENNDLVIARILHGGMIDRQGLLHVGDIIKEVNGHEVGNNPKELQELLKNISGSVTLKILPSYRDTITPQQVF

T5: DFNB31_3, Q9P202
T5 sequence (Q9P202 811-907, limits assumed, looked up): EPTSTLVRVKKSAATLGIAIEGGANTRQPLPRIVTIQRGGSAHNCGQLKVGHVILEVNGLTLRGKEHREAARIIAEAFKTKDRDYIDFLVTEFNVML

T6: GRIP1_3, Q9Y3R0
T6 sequence (Q9Y3R0 247-346, limits assumed, looked up): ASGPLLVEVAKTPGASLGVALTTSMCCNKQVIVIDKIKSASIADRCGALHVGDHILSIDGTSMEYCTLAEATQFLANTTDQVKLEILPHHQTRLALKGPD

T7: SHANK1, Q9Y566
T7 sequence (Q9Y566 658-767, limits assumed, looked up): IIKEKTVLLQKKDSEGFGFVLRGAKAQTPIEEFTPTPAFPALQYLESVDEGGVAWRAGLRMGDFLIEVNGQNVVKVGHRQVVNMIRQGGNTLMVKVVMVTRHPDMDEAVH

T8: GRIP1_7, Q9Y3R0
T8 sequence (Q9Y3R0 999-1096, limits assumed, looked up): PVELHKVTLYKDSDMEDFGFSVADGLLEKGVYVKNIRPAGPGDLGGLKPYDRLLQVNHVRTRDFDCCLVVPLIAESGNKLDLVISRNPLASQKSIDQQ

T9: MPDZ_12, O75970
T9 sequence (O75970 1857-1958, limits assumed, looked up): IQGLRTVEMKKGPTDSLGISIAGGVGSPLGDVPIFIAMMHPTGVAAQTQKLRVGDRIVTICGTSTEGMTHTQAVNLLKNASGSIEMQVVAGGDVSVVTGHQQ

T10: APBA1_2, Q02410
T10 sequence (Q02410 742-832, limits assumed, looked up): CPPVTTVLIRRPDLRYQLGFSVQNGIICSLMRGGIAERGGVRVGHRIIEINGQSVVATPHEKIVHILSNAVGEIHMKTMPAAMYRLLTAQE

T11: SYNJ2BP, P57105
T11 sequence (P57105 8-110, limits assumed, looked up): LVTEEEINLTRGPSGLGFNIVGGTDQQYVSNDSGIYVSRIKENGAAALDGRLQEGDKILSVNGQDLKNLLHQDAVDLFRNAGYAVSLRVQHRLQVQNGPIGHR

T12: APBA3_1, O96018
T12 sequence (O96018 389-490, limits assumed, looked up): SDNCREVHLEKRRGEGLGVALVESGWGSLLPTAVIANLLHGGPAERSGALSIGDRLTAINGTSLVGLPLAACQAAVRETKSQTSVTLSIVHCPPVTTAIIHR

B1: CXCR1, P25024 (peptide)
chain: SSSVNVSSNL

What follows are binders tested against GRID2IP_1, A4D2P6 (assay: holdup assay). Details: plain residues with an end cap or a label only (N-terminal biotin on a linker: ado-ado).
Chain of GRID2IP_1, A4D2P6 (A4D2P6 1-87): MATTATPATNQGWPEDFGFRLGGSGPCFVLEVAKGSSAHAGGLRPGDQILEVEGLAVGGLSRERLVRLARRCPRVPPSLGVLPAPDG
Design: key: below the threshold = too weak to quantify, mostly under pKd 3.1 to 4

Q: B1 was tested. Which pKd did it give?
A: below the threshold

Each binder was assayed against PDZRN4_1, Q6ZMN7 (assay: holdup assay). Details: plain residues with an end cap or a label only (N-terminal biotin on a linker: ado-ado).
Chain of PDZRN4_1, Q6ZMN7 (Q6ZMN7 213-318): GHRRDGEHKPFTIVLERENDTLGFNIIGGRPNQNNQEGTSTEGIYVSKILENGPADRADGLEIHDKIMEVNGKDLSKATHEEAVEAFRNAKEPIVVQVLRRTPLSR
Design: key: below the threshold = too weak to quantify, mostly under pKd 3.1 to 4

Q: For B1, which pKd is on record?
A: below the threshold

These binders were tested against TJP1_3, Q07157 (assay: holdup assay). Details: plain residues with an end cap or a label only (N-terminal biotin on a linker: ado-ado).
Chain of TJP1_3, Q07157 (Q07157 416-512): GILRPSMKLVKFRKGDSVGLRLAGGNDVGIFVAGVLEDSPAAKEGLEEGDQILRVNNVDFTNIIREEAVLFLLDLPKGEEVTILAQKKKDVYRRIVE
Design: key: below the threshold = too weak to quantify, mostly under pKd 3.1 to 4

Q: For B1, which pKd is on record?
A: below the threshold

The binders below were run against AHNAK1, Q09666 (assay: holdup assay). Details: plain residues with an end cap or a label only (N-terminal biotin on a linker: ado-ado).
Chain of AHNAK1, Q09666 (Q09666 4-100): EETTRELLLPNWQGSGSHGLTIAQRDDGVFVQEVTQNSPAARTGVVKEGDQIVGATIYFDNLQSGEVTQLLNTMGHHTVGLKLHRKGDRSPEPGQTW
Design: key: below the threshold = too weak to quantify, mostly under pKd 3.1 to 4

Q: For B1, which pKd is on record?
A: below the threshold

What follows are binders tested against T1, PDZD7_3, Q9H5P4 (assay: holdup assay). Details: plain residues with an end cap or a label only (N-terminal biotin on a linker: ado-ado).
Design: key: below the threshold = too weak to quantify, mostly under pKd 3.1 to 4

Q: B1 was tested. Which pKd did it give?
A: below the threshold

What follows are binders tested against T2, PTPN13_1, Q12923 (assay: holdup assay). Details: plain residues with an end cap or a label only (N-terminal biotin on a linker: ado-ado).
Design: key: below the threshold = too weak to quantify, mostly under pKd 3.1 to 4

Q: B1 was tested. Which pKd did it give?
A: below the threshold

The binders below were run against FRMPD2_3, Q68DX3 (assay: holdup assay). Details: plain residues with an end cap or a label only (N-terminal biotin on a linker: ado-ado).
Chain of FRMPD2_3, Q68DX3 (Q68DX3 1073-1166): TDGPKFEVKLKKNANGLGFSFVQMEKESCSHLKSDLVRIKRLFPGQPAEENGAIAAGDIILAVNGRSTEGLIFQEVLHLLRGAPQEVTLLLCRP
Design: key: below the threshold = too weak to quantify, mostly under pKd 3.1 to 4

Q: With B1 as the binder, how does the pKd read?
A: below the threshold

Each binder was assayed against T3, DFNB31_1, Q9P202 (assay: holdup assay). Details: plain residues with an end cap or a label only (N-terminal biotin on a linker: ado-ado).
Design: key: below the threshold = too weak to quantify, mostly under pKd 3.1 to 4

Q: B1 was tested. Which pKd did it give?
A: 3.56

These binders were tested against NHERF2_2, Q15599 (assay: holdup assay). Details: plain residues with an end cap or a label only (N-terminal biotin on a linker: ado-ado).
Chain of NHERF2_2, Q15599 (Q15599 142-238): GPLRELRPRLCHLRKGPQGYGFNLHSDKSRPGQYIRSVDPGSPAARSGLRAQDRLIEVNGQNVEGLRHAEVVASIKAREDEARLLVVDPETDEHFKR
Design: key: below the threshold = too weak to quantify, mostly under pKd 3.1 to 4

Q: For B1, which pKd is on record?
A: 4.44

The binders below were run against T4, MPP6, Q9NZW5 (assay: holdup assay). Details: plain residues with an end cap or a label only (N-terminal biotin on a linker: ado-ado).
Design: key: below the threshold = too weak to quantify, mostly under pKd 3.1 to 4

Q: B1 was tested. Which pKd did it give?
A: below the threshold

These binders were tested against T5, DFNB31_3, Q9P202 (assay: holdup assay). Details: plain residues with an end cap or a label only (N-terminal biotin on a linker: ado-ado).
Design: key: below the threshold = too weak to quantify, mostly under pKd 3.1 to 4

Q: Which pKd does the source give for B1 here?
A: 4.18

Each binder was assayed against T6, GRIP1_3, Q9Y3R0 (assay: holdup assay). Details: plain residues with an end cap or a label only (N-terminal biotin on a linker: ado-ado).
Design: key: below the threshold = too weak to quantify, mostly under pKd 3.1 to 4

Q: Which pKd does the source give for B1 here?
A: below the threshold

The binders below were run against DLG4_3, P78352 (assay: holdup assay). Details: plain residues with an end cap or a label only (N-terminal biotin on a linker: ado-ado).
Chain of DLG4_3, P78352 (P78352 306-403): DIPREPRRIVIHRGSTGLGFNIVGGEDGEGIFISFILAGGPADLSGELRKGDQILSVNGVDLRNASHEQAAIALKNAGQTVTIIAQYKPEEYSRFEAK
Design: key: below the threshold = too weak to quantify, mostly under pKd 3.1 to 4

Q: With B1 as the binder, how does the pKd read?
A: below the threshold

These binders were tested against DLG4_2, P78352 (assay: holdup assay). Details: plain residues with an end cap or a label only (N-terminal biotin on a linker: ado-ado).
Chain of DLG4_2, P78352 (P78352 155-259): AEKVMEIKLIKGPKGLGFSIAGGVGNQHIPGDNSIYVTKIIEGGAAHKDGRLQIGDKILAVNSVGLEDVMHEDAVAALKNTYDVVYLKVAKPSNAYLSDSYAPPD
Design: key: below the threshold = too weak to quantify, mostly under pKd 3.1 to 4

Q: With B1 as the binder, how does the pKd read?
A: below the threshold

What follows are binders tested against T7, SHANK1, Q9Y566 (assay: holdup assay). Details: plain residues with an end cap or a label only (N-terminal biotin on a linker: ado-ado).
Design: key: below the threshold = too weak to quantify, mostly under pKd 3.1 to 4

Q: How did the pKd turn out when B1 was run?
A: 3.94

These binders were tested against T8, GRIP1_7, Q9Y3R0 (assay: holdup assay). Details: plain residues with an end cap or a label only (N-terminal biotin on a linker: ado-ado).
Design: key: below the threshold = too weak to quantify, mostly under pKd 3.1 to 4

Q: B1 was tested. Which pKd did it give?
A: below the threshold

These binders were tested against T9, MPDZ_12, O75970 (assay: holdup assay). Details: plain residues with an end cap or a label only (N-terminal biotin on a linker: ado-ado).
Design: key: below the threshold = too weak to quantify, mostly under pKd 3.1 to 4

Q: For B1, which pKd is on record?
A: below the threshold

These binders were tested against GRID2IP_2, A4D2P6 (assay: holdup assay). Details: plain residues with an end cap or a label only (N-terminal biotin on a linker: ado-ado).
Chain of GRID2IP_2, A4D2P6 (A4D2P6 272-370): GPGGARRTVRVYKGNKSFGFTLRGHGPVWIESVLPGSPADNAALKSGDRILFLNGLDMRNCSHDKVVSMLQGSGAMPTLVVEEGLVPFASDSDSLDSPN
Design: key: below the threshold = too weak to quantify, mostly under pKd 3.1 to 4

Q: How did the pKd turn out when B1 was run?
A: 3.84

What follows are binders tested against T10, APBA1_2, Q02410 (assay: holdup assay). Details: plain residues with an end cap or a label only (N-terminal biotin on a linker: ado-ado).
Design: key: below the threshold = too weak to quantify, mostly under pKd 3.1 to 4

Q: B1 was tested. Which pKd did it give?
A: below the threshold

The binders below were run against MAGI1_1, Q96QZ7 (assay: holdup assay). Details: plain residues with an end cap or a label only (N-terminal biotin on a linker: ado-ado).
Chain of MAGI1_1, Q96QZ7 (Q96QZ7 1-106): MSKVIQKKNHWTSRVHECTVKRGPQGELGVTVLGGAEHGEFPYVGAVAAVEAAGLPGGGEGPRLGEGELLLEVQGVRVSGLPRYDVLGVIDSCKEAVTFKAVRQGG
Design: key: below the threshold = too weak to quantify, mostly under pKd 3.1 to 4

Q: Which pKd does the source give for B1 here?
A: below the threshold

These binders were tested against DLG5_1, Q8TDM6 (assay: holdup assay). Details: plain residues with an end cap or a label only (N-terminal biotin on a linker: ado-ado).
Chain of DLG5_1, Q8TDM6 (Q8TDM6 617-713): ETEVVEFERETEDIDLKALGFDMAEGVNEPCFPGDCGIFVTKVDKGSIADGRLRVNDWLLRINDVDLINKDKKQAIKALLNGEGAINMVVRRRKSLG
Design: key: below the threshold = too weak to quantify, mostly under pKd 3.1 to 4

Q: For B1, which pKd is on record?
A: below the threshold

The binders below were run against T11, SYNJ2BP, P57105 (assay: holdup assay). Details: plain residues with an end cap or a label only (N-terminal biotin on a linker: ado-ado).
Design: key: below the threshold = too weak to quantify, mostly under pKd 3.1 to 4

Q: B1 was tested. Which pKd did it give?
A: below the threshold

Each binder was assayed against DLG1_1, Q12959 (assay: holdup assay). Details: plain residues with an end cap or a label only (N-terminal biotin on a linker: ado-ado).
Design: key: below the threshold = too weak to quantify, mostly under pKd 3.1 to 4

Q: For B1, which pKd is on record?
A: below the threshold

What follows are binders tested against Inadl_8, Q8NI35 (assay: holdup assay). Details: plain residues with an end cap or a label only (N-terminal biotin on a linker: ado-ado).
Chain of Inadl_8, Q8NI35 (Q8NI35 1425-1530): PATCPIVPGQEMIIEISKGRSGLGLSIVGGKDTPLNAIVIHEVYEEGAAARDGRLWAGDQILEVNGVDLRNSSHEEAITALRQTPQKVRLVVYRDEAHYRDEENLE
Design: key: below the threshold = too weak to quantify, mostly under pKd 3.1 to 4

Q: How did the pKd turn out when B1 was run?
A: below the threshold

What follows are binders tested against MAGI1_2, Q96QZ7 (assay: holdup assay). Details: plain residues with an end cap or a label only (N-terminal biotin on a linker: ado-ado).
Chain of MAGI1_2, Q96QZ7 (Q96QZ7 456-580): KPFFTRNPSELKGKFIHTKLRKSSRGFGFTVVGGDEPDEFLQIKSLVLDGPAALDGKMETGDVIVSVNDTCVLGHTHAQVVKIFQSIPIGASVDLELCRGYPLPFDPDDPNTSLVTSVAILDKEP
Design: key: below the threshold = too weak to quantify, mostly under pKd 3.1 to 4

Q: With B1 as the binder, how does the pKd read?
A: below the threshold

The binders below were run against T12, APBA3_1, O96018 (assay: holdup assay). Details: plain residues with an end cap or a label only (N-terminal biotin on a linker: ado-ado).
Design: key: below the threshold = too weak to quantify, mostly under pKd 3.1 to 4

Q: With B1 as the binder, how does the pKd read?
A: below the threshold
